{"source": "paper PMC8324832", "molecular_target": "Right-Handed Coiled Coil-Nanotube (RHCC-NT) (Staphylothermus marinus)", "assay": "crystal structure; RHCC-NT incubated with o-carborane at 50 °C for 1 week, 10 mg/mL in 10 mM TRIS pH 7.5, 154 mM NaCl; vapour diffusion; data at 100 K; 2.2 Å; molecular replacement with PDB 1YBK", "data": [{"substance": "Right-Handed Coiled Coil-Nanotube (RHCC-NT) (domain or fragment)", "values": [{"measurement": "stoichiometry N", "value": 4}]}]}
